Test results taken from patent US20190225669A1 (ACCELERON PHARMA, published 2019).
Read-outs that look alike come from different tables or passages of the source.

T1: ActRIIB-Fc homodimer (UniProt Q13705 19-137)
T1 construct: extracellular domain; also called ActRIIB homodimer
T1 sequence (looked up): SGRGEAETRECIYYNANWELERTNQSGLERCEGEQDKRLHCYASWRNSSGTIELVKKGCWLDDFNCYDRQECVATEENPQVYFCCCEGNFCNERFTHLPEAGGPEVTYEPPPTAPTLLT

T2: BMPRII-Fc homodimer (UniProt Q13873 27-150)
T2 construct: extracellular domain
T2 sequence (looked up): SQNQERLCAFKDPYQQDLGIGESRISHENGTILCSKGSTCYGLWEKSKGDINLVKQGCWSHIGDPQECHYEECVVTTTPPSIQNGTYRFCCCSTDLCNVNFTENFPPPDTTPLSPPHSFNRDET


Experiments:
ActRIIB-Fc homodimer [1] = molecular target: T1, ActRIIB-Fc homodimer; experiment: Biacore SPR
Protocol: (§1) Ligands were injected and allowed to flow over the captured receptor protein.

ActRIIA-Fc homodimer = molecular target: T3, ActRIIA-Fc homodimer (UniProt P27037 20-135); experiment: Biacore SPR; kinetics indeterminate (transient)
T3 construct: extracellular domain
Protocol: as §1

ALK3-Fc homodimer = molecular target: T4, ALK3-Fc homodimer (UniProt P36894 24-152); experiment: Biacore SPR
T4 construct: extracellular domain
Protocol: as §1

ActRIIB-Fc homodimer [2] = molecular target: T1, ActRIIB-Fc homodimer; experiment: Biacore SPR; remark: listed apart in the source
Protocol: as §1

BMPRII-Fc homodimer [3] = molecular target: T2, BMPRII-Fc homodimer; experiment: Biacore SPR
Protocol: as §1

BMPRII-Fc homodimer [4] = molecular target: T2, BMPRII-Fc homodimer; experiment: Biacore SPR; remark: listed apart in the source
Protocol: A Biacore™-based binding assay was used to compare ligand binding selectivity of the BMPRII-Fc:ALK2-Fc heterodimeric complex described above with that of BMPRII-Fc and ALK2-Fc homodimeric complexes. […] Ligands were injected and allowed to flow over the captured receptor protein.

ActRIIB-Fc homodimer [5] = molecular target: T1, ActRIIB-Fc homodimer; experiment: Biacore SPR; remark: listed apart in the source
Protocol: as §1

ActRIIB-Fc homodimer [6] = molecular target: T1, ActRIIB-Fc homodimer; experiment: Biacore SPR; remark: listed apart in the source
Protocol: as §1

BMPRII-Fc homodimer [7] = molecular target: T2, BMPRII-Fc homodimer; experiment: Biacore SPR; remark: listed apart in the source
Protocol: as §1

BMPRII-Fc homodimer [8] = molecular target: T2, BMPRII-Fc homodimer; experiment: Biacore SPR; remark: listed apart in the source
Protocol: as §1

ActRIIB-Fc homodimer [9] = molecular target: T1, ActRIIB-Fc homodimer; experiment: Biacore SPR; remark: listed apart in the source
Protocol: as §1

BMPRII-Fc homodimer [10] = molecular target: T2, BMPRII-Fc homodimer; experiment: Biacore SPR; kinetics indeterminate (transient)
Protocol: as §1

T4 sequence (P36894 24-152): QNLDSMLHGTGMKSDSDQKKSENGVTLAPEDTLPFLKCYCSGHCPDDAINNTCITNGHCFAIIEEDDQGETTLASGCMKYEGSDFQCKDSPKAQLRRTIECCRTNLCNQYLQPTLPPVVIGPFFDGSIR
T3 sequence (P27037 20-135): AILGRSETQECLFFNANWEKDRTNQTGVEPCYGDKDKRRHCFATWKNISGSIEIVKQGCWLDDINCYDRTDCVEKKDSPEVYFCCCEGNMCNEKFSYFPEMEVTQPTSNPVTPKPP

Kd (ActRIIB-Fc homodimer [1]) [nM]	koff (ActRIIB-Fc homodimer [1]) [s⁻¹]	kon (ActRIIB-Fc homodimer [1]) [M⁻¹ s⁻¹]	binding result (ALK3-Fc homodimer)	Kd (ActRIIB-Fc homodimer [2]) [nM]	koff (ActRIIB-Fc homodimer [2]) [s⁻¹]	kon (ActRIIB-Fc homodimer [2]) [M⁻¹ s⁻¹]	Kd (ActRIIB-Fc homodimer [5]) [nM]	koff (ActRIIB-Fc homodimer [5]) [s⁻¹]	kon (ActRIIB-Fc homodimer [5]) [M⁻¹ s⁻¹]	Kd (ActRIIB-Fc homodimer [6]) [nM]	koff (ActRIIB-Fc homodimer [6]) [s⁻¹]	kon (ActRIIB-Fc homodimer [6]) [M⁻¹ s⁻¹]	Kd (ActRIIB-Fc homodimer [9]) [nM]	koff (ActRIIB-Fc homodimer [9]) [s⁻¹]	kon (ActRIIB-Fc homodimer [9]) [M⁻¹ s⁻¹]	Binder	further results
0.01	0.0012	1.2e+08	no binding	0.034	0.0013	3.9e+07	0.034	0.0013	3.9e+07	0.034	0.0013	3.9e+07	0.077	0.0011	1.4e+07	BMP9 (ligand, UniProt Q9UK05 320-429, looked up, also called GDF2) SAGAGSHCQKTSLRVNFEDIGWDSWIIAPKEYEAYECKGGCFFPLADDVTPTKHAIVQTLVHLKFPTKVGKACCVPTKLSPISVLYKDDMGVPTLKYHYEGMSVAECGCR	Kd (ActRIIA-Fc homodimer): > 10 nM; Kd (BMPRII-Fc homodimer [3]): 2.1 nM; koff (BMPRII-Fc homodimer [3]): 0.026 s⁻¹; kon (BMPRII-Fc homodimer [3]): 1.2e+07 M⁻¹ s⁻¹; Kd (BMPRII-Fc homodimer [4]): 1.6 nM; koff (BMPRII-Fc homodimer [4]): 0.073 s⁻¹; kon (BMPRII-Fc homodimer [4]): 4.5e+07 M⁻¹ s⁻¹; Kd (BMPRII-Fc homodimer [7]): 2.1 nM; koff (BMPRII-Fc homodimer [7]): 0.026 s⁻¹; kon (BMPRII-Fc homodimer [7]): 1.2e+07 M⁻¹ s⁻¹; Kd (BMPRII-Fc homodimer [8]): 2.1 nM; koff (BMPRII-Fc homodimer [8]): 0.026 s⁻¹; kon (BMPRII-Fc homodimer [8]): 1.2e+07 M⁻¹ s⁻¹
0.011	0.00014	1.3e+07	no binding	0.011	0.00014	1.3e+07	0.019	0.00023	1.2e+07	0.015	0.00017	1.2e+07	0.019	0.00023	1.2e+07	activin A (ligand, UniProt P08476 311-426, looked up) GLECDGKVNICCKKQFFVSFKDIGWNDWIIAPSGYHANYCEGECPSHIAGTSGSSLSFHSTVINHYRMRGHSPFANLKSCCVPTKLRPMSMLYYDDGQNIIKKDIQNMIVEECGCS	Kd (BMPRII-Fc homodimer [10]): > 43 nM
